The values that follow come from patent US20260242839A1, “GLYCOSIDE PRODUCT BIOSYNTHESIS AND RECOVERY” (Manus Bio Inc., priority 2023, published 2026).

Substitutions are numbered along the chain they refer to. In names and notes the source's numbering stands.

The subject of series [1] is steviol glycoside. Put plainly: steviol glycoside bioconversion with overexpressed genes complemented on plasmid. The series is classed as cell-based, E. coli. As to conditions: chassis strain with UGT SEQ ID NOS: 14 and 24; stevia leaf extract and glucose fed; 37° C., 48 hr; FIG. 2. As for the experimental part: Other bacterial genes were overexpressed, and bioconversion tested as compared to the chassis strain expressing UGT enzymes of SEQ ID NOS: 14 and 24. […] Fold improvement is with respect to total steviol glycoside conversion. Stevia leaf extract and glucose were fed to the bioconversion strains. Bioconversion took place at 37° C. for 48 hr. Data were quantified by reverse phase LC DAD to quantify conversion of steviol glycosides.

In the next series the test system is mogrol. Put plainly: primary glycosylation at C3 and C24 hydroxyls of mogrol by cells expressing UGT enzymes. The series is classed as cell-based, E. coli. The following applies: mogrol fed; 37° C., 48 hrs; LCMS/MS. As for the experimental part: Specifically, mogrol was fed to cells expressing various UGT enzymes. Reactions were incubated at 37° C. for 48 hrs. Products were quantified by LCMS/MS with authentic standards of each compound.

Series [2] relates to steviol glycoside. The series is described as follows: steviol glycoside bioconversion by E. coli expressing individual mutations of UGT SEQ ID NO: 15. The series is classed as cell-based. The following applies: fold improvement of % conversion vs parent UGT SEQ ID NO: 15; stevia leaf extract and glucose fed; 37° C., 48 hr. As for the experimental part:
Fold improvement is with respect to % steviol glycoside conversion of the parent UGT enzyme of SEQ ID NO: 15. SEQ ID NO: 16 has the following mutations from SEQ ID NO: 15: M152A, S153A. Stevia leaf extract and glucose were fed to the bioconversion strains. Bioconversion took place at 37° C. for 48 hr. Data were quantified by reverse phase LC DAD to quantify conversion of steviol glycosides.
Fold improvement (FI) is with respect to % steviol glycoside conversion.

In the case of “adk: E. coli adk (adenylate kinase), complemented on plasmid”, the “improvement of total steviol glycoside conversion by gene complementation” value (shortened to “improvement”) in the series on steviol glycoside [1] was “improved overall glycosylation”.

B1: SEQ ID NO: 81: UGT enzyme (Camelina sativa) (protein, listed as Camelina sativa)
chain: MASEKTLQVHPPLHFVLFPFMAQGHMIPMVDIARLLAQRGATVTIVTTRYNAGRFENVLSRAVESGLPINIVHVKFPYEEVGLPKGKENIDSLDSMELMVPFFKAVNMLQDPVVKLMEEMESRPSCIISDLLLPYTSKIAKKFNIPKIVFHGISCFCLLCVHVLRRNLEILTNLKSDKEYFLVPSFPDRVEFTKPQVTVETNASGDWKEFLDEMVEAEDTSYGVIINTFEELEPAYVKDYKDARAGNVWSIGPVSLCNKAGVDKAERGNKATIDQDECLKWLDSKEEGSVLYVCLGSICNLPLVQLKELGLGLEESQRPFIWVIRGWEKYNELSEWMVESGFEERIRERGLLIRGWAPQVLILSHPSVGGFLTHCGWNSTVEGITSGVPLITWPLFGDQFCNQTLVVQVLKAGVSVGVEEVMKWGEEEKIGVLVDKEGVKKAVEDLMGESDDAKERTKRVKELGGLAHKAVEEGGSSHSNITLFLQDIRQVQSV
As to B1, in the series with mogrol, the “C3 O-Glucosylation” value was “No” and the “C24 O-Glucosylation” value is reported as “Yes”.

B2: SEQ ID NO: 46: CmaUGT1 (Cucurbita maxima) (protein, listed as Cucurbita maxima)
chain: MELSHTHHVLLFPFPAKGHIKPFFSLAQLLCNAGLRVTFLNTDHHHRRIHDLNRLAAQLPTLHFDSVSDGLPPDEPRNVFDGKLYESIRQVTSSLFRELLVSYNNGTSSGRPPITCVITDVMFRFPIDIAEELGIPVFTFSTFSARFLFLIFWIPKLLEDGQLRYPEQELHGVPGAEGLIRWKDLPGFWSVEDVADWDPMNFVNQTLATSRSSGLILNTFDELEAPFLTSLSKIYKKIYSLGPINSLLKNFQSQPQYNLWKEDHSCMAWLDSQPRKSVVFVSFGSVVKLTSRQLMEFWNGLVNSGMPFLLVLRSDVIEAGEEVVREIMERKAEGRWVIVSWAPQEEVLAHDAVGGFLTHSGWNSTLESLAAGVPMISWPQIGDQTSNSTWISKVWRIGLQLEDGFDSSTIETMVRSIMDQTMEKTVAELAERAKNRASKNGTSYRNFQTLIQDITNIIETHI
B2: in the series with mogrol, the “C3 O-Glucosylation” value is listed as “Yes” and the “C24 O-Glucosylation” value was “No”.

B3: SEQ ID NO: 82: UGT73F24 (Glycyrrhiza uralensis) (protein, listed as Glycyrrhiza sp.)
chain: MADVAEEQPLKIYFIPYLAAGHMIPLCDIATLFASRGHHVTIITTPSNAQTLRESHHFRVQTIQFPSQEVGLPAGVQNLTAVTNLDDSYKIYHATMLLRKHIEDFVERDPPDCIVADFLFPWVDDVATKLHIPRLVFNGFTLFTICAMESHKAHPLPVDAASGSFVIPDFPHHVTINSTPPKRTKEFVDPLLTEAFKSHGFLINSFVELDGEECVEHYERITGGHKAWHLGPAFLVHRTAQDRGEKSVVSTQECLSWLDSKRDNSVLYICFGTICYFPDKQLYEIASAIEASGHEFIWVVPEKRGNADESEEEKEKWLPKGFEERNNGKKGMIIRGWAPQVAILGHPAVGGFLTHCGWNSTVEAVSAGVPMITWPVHSDQYFNEKLITQVRGIGVEVGAEEWIVTAFRETEKLVGRDRIERAVRRVMDGGDEAVQIRRRARELGEMARQAVQEGGSSHTNLTALINDLKRWRDSKQLN
As for B3, in the series on mogrol, the “C3 O-Glucosylation” value is “No” and the “C24 O-Glucosylation” value is “Yes”.

B4: pgm: E. coli pgm (phosphoglucomutase), complemented on plasmid (protein, listed as Escherichia coli)
chain: MAIHNRAGQPAQQSDLINVAQLTAQYYVLKPEAGNAEHAVKFGTSGHRGSAARHSFNEPHILAIAQAIAEERAKNGITGPCYVGKDTHALSEPAFISVLEVLAANGVDVIVQENNGFTPTPAVSNAILVHNKKGGPLADGIVITPSHNPPEDGGIKYNPPNGGPADTNVTKVVEDRANALLADGLKGVKRISLDEAMASGHVKEQDLVQPFVEGLADIVDMAAIQKAGLTLGVDPLGGSGIEYWKRIGEYYNLNLTIVNDQVDQTFRFMHLDKDGAIRMDCSSECAMAGLLALRDKFDLAFANDPDYDRHGIVTPAGLMNPNHYLAVAINYLFQHRPQWGKDVAVGKTLVSSAMIDRVVNDLGRKLVEVPVGFKWFVDGLFDGSFGFGGEESAGASFLRFDGTPWSTDKDGIIMCLLAAEITAVTGKNPQEHYNELAKRFGAPSYNRLQAAATSAQKAALSKLSPEMVSASTLAGDPITARLTAAPGNGASIGGLKVMTDNGWFAARPSGTEDAYKIYCESFLGEEHRKQIEKEAVEIVSEVLKNA
As to B4, in the series with steviol glycoside [1], the “improvement” value was “improved overall glycosylation”.

B5: S125V: mutation to UGT enzyme of SEQ ID NO: 15 (protein)
chain: MARRTKNSSGMSLAERFWLTLSRSSLVVGRSCVEFEPETVPLLSTLRGKPITFLGLMPPLPEGRREDGEDATVRWLDAQPAKSVVYVALGSEVPLGVEKVHELALGLELAGTRFLWALRKPTGVVDADLLPAGFEERTRGRGVVATRWVPQMSILAHAAVGAFLTHCGWNSTIEGLMFGHPLIMLPITGDQGPNARLIEAKNAGLQVARNDGDGSFDREGVAAAIRAVAVEEESSKVFQEKAKKLQEIVADMACHERYIDGFIQQLRSYKDDSGYSSSYAAAAGMHVVICPWLAFGHLLPCLDLAQRLASRGHRVSFVSTPRNISRLPPVRPALAPLVAFVALPLPRVEGLPDGAESTNDVPHDRPDMVELHRRAFDGLAAPFSEFLGTACADWVIVDSFHHWAAAAALEHKVPCAMMFLGSAEMIASIADERLEHAETESPAAAGQGRPAAAPTFEVARMKLIR
Take B5: in the series on steviol glycoside [2], the “FI % Stevioside −> rebE” value worked out at 1.16 and the “FI % rebA −> rebD” value was 1.13.

B6: H402W: mutation to UGT enzyme of SEQ ID NO: 15 (protein)
chain: B5 chain with V125S, H402W
With B6, in the series with steviol glycoside [2], the “FI % Stevioside −> rebE” value came to 1.07 and the “FI % rebA −> rebD” value stood at 1.09.

B7: SEQ ID NO: 80: SrUGT73E1, with optional His tag (Stevia rebaudiana) (protein, listed as Stevia rebaudiana)
chain: MAHHHHHHVGTGSNDDDDKSPDPNWASTSELVFIPSPGAGHLPPTVELAKLLLHRDQRLSVTIIVMNLWLGPKHNTEARPCVPSLRFVDIPCDESTMALISPNTFISAFVEHHKPRVRDIVRGIIESDSVRLAGFVLDMFCMPMSDVANEFGVPSYNYFTSGAATLGLMFHLQWKRDHEGYDATELKNSDTELSVPSYVNPVPAKVLPEVVLDKEGGSKMFLDLAERIRESKGIIVNSCQAIERHALEYLSSNNNGIPPVFPVGPILNLENKKDDAKTDEIMRWLNEQPESSVVFLCFGSMGSFNEKQVKEIAVAIERSGHRFLWSLRRPTPKEKIEFPKEYENLEEVLPEGFLKRTSSIGKVIGWAPQMAVLSHPSVGGFVSHCGWNSTLESMWCGVPMAAWPLYAEQTLNAFLLVVELGLAAEIRMDYRTDTKAGYDGGMEVTVEEIEDGIRKLMSDGEIRNKVKDVKEKSRAAVVEGGSSYASIGKFIEHVSNVTI
modifications: optional His tag
As for B7, in the series with mogrol, the “C3 O-Glucosylation” value was “No” and the “C24 O-Glucosylation” value is “Yes”.

B8: SEQ ID NO: 17: SrUGT85C2 (Stevia rebaudiana) (protein, listed as Stevia rebaudiana)
chain: MDAMATTEKKPHVIFIPFPAQSHIKAMLKLAQLLHHKGLQITFVNTDFIHNQFLESSGPHCLDGAPGFRFETIPDGVSHSPEASIPIRESLLRSIETNFLDRFIDLVTKLPDPPTCIISDGFLSVFTIDAAKKLGIPVMMYWTLAACGFMGFYHIHSLIEKGFAPLKDASYLTNGYLDTVIDWVPGMEGIRLKDFPLDWSTDLNDKVLMFTTEAPQRSHKVSHHIFHTFDELEPSIIKTLSLRYNHIYTIGPLQLLLDQIPEEKKQTGITSLHGYSLVKEEPECFQWLQSKEPNSVVYVNFGSTTVMSLEDMTEFGWGLANSNHYFLWIIRSNLVIGENAVLPPELEEHIKKRGFIASWCSQEKVLKHPSVGGFLTHCGWGSTIESLSAGVPMICWPYSWDQLTNCRYICKEWEVGLEMGTKVKRDEVKRLVQELMGEGGHKMRNKAKDWKEKARIAIAPNGSSSLNIDKMVKEITVLARN
With B8, in the series with mogrol, the “C3 O-Glucosylation” value was “No” and the “C24 O-Glucosylation” value is listed as “Yes”.

B9: galU: E. coli galU (UTP-glucose-1-phosphate uridylyltransferase), complemented on plasmid (protein, listed as Escherichia coli)
chain: MAAINTKVKKAVIPVAGLGTRMLPATKAIPKEMLPLVDKPLIQYVVNECIAAGITEIVLVTHSSKNSIENHFDTSFELEAMLEKRVKRQLLDEVQSICPPHVTIMQVRQGLAKGLGHAVLCAHPVVGDEPVAVILPDVILDEYESDLSQDNLAEMIRRFDETGHSQIMVEPVADVTAYGVVDCKGVELAPGESVPMVGVVEKPKADVAPSNLAIVGRYVLSADIWPLLAKTPPGAGDEIQLTDAIDMLIEKETVEAYHMKGKSHDCGNKLGYMQAFVEYGIRHNTLGTEFKAWLEEEMGIKK
Turning to B9, the “improvement” value with steviol glycoside [1] is listed as “improved overall glycosylation”.

B10: SEQ ID NO: 83: UGT73C33 (Glycyrrhiza uralensis) (protein, listed as Glycyrrhiza sp.)
chain: MAVFQANQPHFVLFPLMAQGHIIPMIDIARLLAQRGAIVTIFTTPKNASRFTSVLSRAVSSGLQIRLVHLHFPSKEAGLPEGCENLDMVASHDMICNIFQAIRMLQKQAEELFETLTPKPSCIISDFCIPWTTQVAEKHHIPRISFHGFSCFCLHCMLKIHTSKVLEGITSESEYFTVPGIPDQIQVTKQQVPGPMIDEMKEFGEQMRDAEIRSYGVIINTFEELEKAYVNDYKKERNGKVWCIGPVSLCNKDGLDKAQRGNKASISEHHCLEWLDLQQPNSVIYVCLGSLCNLTPPQLMELALGLEATKRPFIWVIREGNKFEELEKWISEEGFEERIKGRGLIIRGWAPQVLILSHPSIGGFLTHCGWNSTLEGVTAGVPMVTWPLFADQFLNEKLVTQVLRIGVSLGVDVPLKWGEEEKVGVQVKKEGIEKAICMVMDEGEESKERRERAKELSEMAKRAVEKDGSSHLNMTMLIQDIMQQSSSKVET
On to B10, for which, in the series on mogrol, the “C3 O-Glucosylation” value is given as “No” and the “C24 O-Glucosylation” value is “Yes”.
